The target of assay [1] is T1, GluD1 (glutamate delta-1 receptor) (Rattus norvegicus, UniProt Q62640).
T1 construct: gene Grid1; rat pCAGGS GluD1 plasmid expressed in COS-7 cells; with Cbln1 (recombinant, HA-tagged)
The assay is described as follows: cell-binding assay: inhibition of rCbln1 binding to GluD1-expressing COS-7 cells; effect lost in R526K mutant; immunoblot confirmation in HEK293T. It counts as cell-based. A general note: A western blot detects proteins with antibodies after separation by electrophoresis.

Another assay addresses Neurexin (UniProt P58400). Particulars: cited from earlier work.
In the next assay the target is GluD1 (UniProt Q9ULK0). Particulars: cited from earlier work.
Sequence of GluD1 (Q9ULK0 21-436): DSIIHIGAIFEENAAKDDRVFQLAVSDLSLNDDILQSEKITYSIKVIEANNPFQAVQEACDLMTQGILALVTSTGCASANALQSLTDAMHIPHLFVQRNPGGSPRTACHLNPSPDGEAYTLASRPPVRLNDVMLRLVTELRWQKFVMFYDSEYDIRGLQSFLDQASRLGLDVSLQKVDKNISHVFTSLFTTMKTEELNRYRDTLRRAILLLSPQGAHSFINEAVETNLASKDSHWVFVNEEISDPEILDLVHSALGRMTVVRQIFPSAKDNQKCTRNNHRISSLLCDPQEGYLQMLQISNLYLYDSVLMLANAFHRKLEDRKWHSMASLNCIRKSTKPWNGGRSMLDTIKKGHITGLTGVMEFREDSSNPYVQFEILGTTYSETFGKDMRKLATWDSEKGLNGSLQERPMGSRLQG

Sequence of Cbln1 (P23435 22-193): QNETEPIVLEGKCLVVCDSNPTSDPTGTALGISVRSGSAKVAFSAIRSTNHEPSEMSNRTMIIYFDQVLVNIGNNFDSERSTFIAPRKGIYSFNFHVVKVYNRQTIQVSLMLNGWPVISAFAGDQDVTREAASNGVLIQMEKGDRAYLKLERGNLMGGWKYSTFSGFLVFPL
T1 sequence (Q62640 21-1009): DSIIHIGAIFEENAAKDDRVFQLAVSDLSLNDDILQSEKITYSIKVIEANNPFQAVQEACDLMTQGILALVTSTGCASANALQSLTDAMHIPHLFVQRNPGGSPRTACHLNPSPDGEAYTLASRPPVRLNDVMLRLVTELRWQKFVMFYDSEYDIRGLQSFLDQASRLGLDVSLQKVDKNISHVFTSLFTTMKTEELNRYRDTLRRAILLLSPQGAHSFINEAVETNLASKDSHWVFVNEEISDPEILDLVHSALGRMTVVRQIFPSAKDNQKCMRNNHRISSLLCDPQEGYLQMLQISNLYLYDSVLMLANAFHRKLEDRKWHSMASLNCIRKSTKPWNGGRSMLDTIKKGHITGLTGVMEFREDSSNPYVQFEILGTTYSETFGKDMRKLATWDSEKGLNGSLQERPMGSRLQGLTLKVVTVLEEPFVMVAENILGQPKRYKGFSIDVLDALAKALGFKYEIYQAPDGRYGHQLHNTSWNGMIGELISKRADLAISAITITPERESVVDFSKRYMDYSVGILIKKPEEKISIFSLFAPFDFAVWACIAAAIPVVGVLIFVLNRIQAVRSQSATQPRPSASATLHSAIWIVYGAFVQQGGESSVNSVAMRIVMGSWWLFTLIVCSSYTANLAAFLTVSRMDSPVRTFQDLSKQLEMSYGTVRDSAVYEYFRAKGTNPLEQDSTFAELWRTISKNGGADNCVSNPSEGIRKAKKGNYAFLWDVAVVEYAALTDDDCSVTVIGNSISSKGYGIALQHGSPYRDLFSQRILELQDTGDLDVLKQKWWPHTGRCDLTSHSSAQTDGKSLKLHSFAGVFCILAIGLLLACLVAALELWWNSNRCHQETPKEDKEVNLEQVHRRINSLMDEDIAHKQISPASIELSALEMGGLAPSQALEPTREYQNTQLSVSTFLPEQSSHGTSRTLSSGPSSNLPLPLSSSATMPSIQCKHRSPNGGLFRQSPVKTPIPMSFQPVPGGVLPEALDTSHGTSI
T1 sequence (P63182 22-193 partner): as the sequence (P23435 22-193) above
Sequence of Neurexin (P58400 51-396): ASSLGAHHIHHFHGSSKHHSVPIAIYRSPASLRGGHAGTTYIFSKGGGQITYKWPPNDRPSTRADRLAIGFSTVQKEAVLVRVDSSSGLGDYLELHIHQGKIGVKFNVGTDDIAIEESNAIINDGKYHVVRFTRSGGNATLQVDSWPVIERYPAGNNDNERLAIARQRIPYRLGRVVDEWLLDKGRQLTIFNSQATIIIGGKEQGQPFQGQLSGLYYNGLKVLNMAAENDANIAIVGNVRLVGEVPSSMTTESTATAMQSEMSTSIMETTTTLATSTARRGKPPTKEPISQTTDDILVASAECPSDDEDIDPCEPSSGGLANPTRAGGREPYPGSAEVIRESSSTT

Take `N[C@H](CO)C(=O)O` [D-serine]: the IC50 in assay [1] was 310000 ± 160000 nM.
On to Cbln1 (from UniProt P23435), for which the Kd was 47 nM in the assay with Neurexin and 100 nM with GluD1.

As a reminder, the IC50 is the concentration that gives 50% inhibition. Usually Kd stands for a measure of binding affinity in units of concentration.

Values taken from publication PMC11785871, “D-Serine disrupts Cbln1 and GluD1 interaction and affects Cbln1-dependent synaptic effects and nocifensive responses in the central amygdala” (Cellular and Molecular Life Sciences: CMLS, 2025).
